# Results reported in US20250115677A1, “Anti-CEA Antibody Drug Conjugates and Methods of Use” (BeiGene Switzerland GmbH, priority 2022, published 2025).
# Positions count from the first letter of the chain named. Names may count otherwise.
# B1: BGA6710 (antibody, human IgG1, V domains shown)
# VH: QVQLVQSGAEVKKPGASVKVSCKASGYIFTSYYLHWVRQAPGQGLEWIGYINPQTGYTSYAQKFQGRVTMTRDTSTSTVYMELSSLRSEDTAVYYCAREYGNYNYPLDYWGQGTLVTVSS
# VL: DIQMTQSPSSLSASVGDRVTITCRASENQYGYLAWYQQKPGKVPKLLIYNYKNLVEGVPSRFSGSGSGTDFTLTISSLQPEDVATYYCQHHLGTPYTFGQGTKVEIK
# notes: BGA2433 with W33Y (VH) and T51Y (VL); wild-type human IgG1 format
# B2: BGA7592-1F-ph-M (BGA2433): affinity matured clone of BGA7592-1F, "(SEQ ID NO:96)", "improved affinities to huCEA surface protein"; template for further engineering (protein)
# chain: B1 VL with Y51T
# modifications: Synthetic: BGA7592-1F-ph-M VL
# notes: template for further engineering
# B3: L92E: BGA6710 variant in IgG format, L92E in the light chain, "slightly reduces the binding affinity to CEA" (antibody, V domains shown)
# VH: B1 VH
# VL: B1 VL with L92E
# Columns and labels:
# [1] = molecular target: T1, human CEA on cells (MKN45, LOVO, NCI-H2122, LS174T, CT26/CEA) (human, UniProt P06731 35-685); assay: flow cytometry on MKN45 cells, Alexa Fluor 647 anti-human IgG Fc
# T1 construct: Full-length human CEA, endogenous on tumour cell lines or transduced; also called native CEA on living cells; huCEA surface protein
# T1 sequence: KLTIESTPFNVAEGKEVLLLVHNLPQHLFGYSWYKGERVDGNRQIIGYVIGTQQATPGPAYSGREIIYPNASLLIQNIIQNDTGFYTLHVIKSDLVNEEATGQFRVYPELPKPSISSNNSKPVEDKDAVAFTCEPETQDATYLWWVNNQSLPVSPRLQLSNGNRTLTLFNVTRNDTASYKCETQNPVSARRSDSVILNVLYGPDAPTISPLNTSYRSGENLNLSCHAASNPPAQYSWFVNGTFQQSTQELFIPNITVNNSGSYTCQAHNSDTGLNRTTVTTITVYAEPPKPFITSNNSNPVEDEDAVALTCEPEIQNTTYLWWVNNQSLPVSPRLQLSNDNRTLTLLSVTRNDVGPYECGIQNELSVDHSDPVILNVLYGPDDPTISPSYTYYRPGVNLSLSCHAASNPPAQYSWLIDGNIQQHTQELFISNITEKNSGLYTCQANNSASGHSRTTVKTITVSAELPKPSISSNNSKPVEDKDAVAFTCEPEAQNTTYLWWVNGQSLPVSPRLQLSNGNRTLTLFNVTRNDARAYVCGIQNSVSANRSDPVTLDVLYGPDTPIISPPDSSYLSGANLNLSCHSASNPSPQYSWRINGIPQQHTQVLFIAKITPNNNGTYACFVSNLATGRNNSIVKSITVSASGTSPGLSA
# Protocol: For flow cytometry, CEA-expressing MKN45 cells (10^5 cells/well) were incubated with various concentrations of purified affinity-matured antibodies, followed by binding with Alexa Fluor-647-labeled anti-hu IgG Fc antibody (Cat. No. 409320, BioLegend, USA). Cell fluorescence was quantified using a flow cytometer (Guava easyCyte™ 8HT, Merck-Millipore, USA).
# [2] = molecular target: T2, recombinant soluble human CEA (extracellular domain, AA 1-687 of huCEA, C-terminal 6xHis) (human, UniProt P06731 35-687); assay: SPR; kinetics on huCEA, IgG format
# T2 construct: also called sCEA; soluble CEA
# T2 sequence: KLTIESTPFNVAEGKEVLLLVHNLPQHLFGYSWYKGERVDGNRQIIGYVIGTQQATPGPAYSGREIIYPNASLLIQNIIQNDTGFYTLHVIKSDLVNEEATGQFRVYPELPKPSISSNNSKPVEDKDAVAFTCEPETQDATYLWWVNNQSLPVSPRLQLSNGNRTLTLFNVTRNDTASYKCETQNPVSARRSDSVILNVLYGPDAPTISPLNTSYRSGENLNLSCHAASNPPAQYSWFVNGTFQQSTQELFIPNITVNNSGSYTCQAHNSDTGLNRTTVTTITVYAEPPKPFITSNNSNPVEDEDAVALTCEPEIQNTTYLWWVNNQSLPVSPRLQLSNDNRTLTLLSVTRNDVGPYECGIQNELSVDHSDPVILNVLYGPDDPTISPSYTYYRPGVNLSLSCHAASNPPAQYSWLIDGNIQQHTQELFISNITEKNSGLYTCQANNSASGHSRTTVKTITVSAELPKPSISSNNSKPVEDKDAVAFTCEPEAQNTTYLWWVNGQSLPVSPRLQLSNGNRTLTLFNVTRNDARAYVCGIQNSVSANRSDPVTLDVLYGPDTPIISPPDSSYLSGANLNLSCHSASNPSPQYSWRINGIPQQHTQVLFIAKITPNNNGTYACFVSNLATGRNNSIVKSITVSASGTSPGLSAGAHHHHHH
# [3] = molecular target: T3, chimeric construct (CHIM) (human); assay: SPR; binding to CHIM
# T3 construct: CEACAM6 AA 1-273 joined to the membrane-peripheral region containing domain B3 of CEA (AA 596-687), C-terminal 6xHis; also called chimeric CEA
# T3 chain: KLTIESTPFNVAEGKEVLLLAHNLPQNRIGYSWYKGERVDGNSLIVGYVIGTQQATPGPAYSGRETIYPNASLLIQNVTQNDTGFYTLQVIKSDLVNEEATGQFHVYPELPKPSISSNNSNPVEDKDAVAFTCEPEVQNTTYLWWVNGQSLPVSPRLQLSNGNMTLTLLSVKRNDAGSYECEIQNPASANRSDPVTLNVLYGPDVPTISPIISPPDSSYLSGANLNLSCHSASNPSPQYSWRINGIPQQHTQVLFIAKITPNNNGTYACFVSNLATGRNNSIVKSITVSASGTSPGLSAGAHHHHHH
# [4] = molecular target: T1, human CEA on cells (MKN45, LOVO, …); assay: flow cytometry on MKN45 cells
# [5] = molecular target: T1, human CEA on cells (MKN45, LOVO, …); assay: cell-based or functional assay
# [6] = molecular target: T4, CHIM (Homo sapiens, UniProt P06731, A174T/A211G/A239V/A261S/A267P/C12H/D173N/E253A/E283V/F203L/F272R/F277P/F63I/H123Q/H61N/H9C/I100T/I112V/I113T/I13V/I230T/I80V/INS244IISP/K155N/K214E/L18V/L245P/L62R/N182G/N204S/N246D/N288K/P266S/P287A/Q16K/Q78L/R139H/R17E/R198M/R224N/R250L/R77S/S228P/S280H/T171V/T206K/T210A/T217I/T247S/T276I/V221A/V273I/V291P/V55A/W11L); assay: SPR affinity comparison of affinity matured humanized BGA7592 variants on CHIM; assay type: binding; settings: Table 11, SPR to CHIM
# T4 construct: CEACAM6 N-terminal part (fusion partner); 6xHis (C); made in house; host or cells: HEK293-based mammalian cell expression system
# T4 sequence (P06731 with tags, fused parts or gaps H9C/W11L/C12H/I13V/Q16K/R17E/L18V/V55A/H61N/L62R/F63I/R77S/Q78L/I80V/I100T/I112V/I113T/H123Q/R139H/K155N/T171V/D173N/A174T/N182G/R198M/F203L/N204S/T206K/T210A/A211G/K214E/T217I/V221A/R224N/S228P/I230T/A239V/INS244IISP/L245P/N246D/T247S/R250L/E253A/A261S/P266S/A267P/F272R/V273I/T276I/F277P/S280H/E283V/P287A/N288K/V291P): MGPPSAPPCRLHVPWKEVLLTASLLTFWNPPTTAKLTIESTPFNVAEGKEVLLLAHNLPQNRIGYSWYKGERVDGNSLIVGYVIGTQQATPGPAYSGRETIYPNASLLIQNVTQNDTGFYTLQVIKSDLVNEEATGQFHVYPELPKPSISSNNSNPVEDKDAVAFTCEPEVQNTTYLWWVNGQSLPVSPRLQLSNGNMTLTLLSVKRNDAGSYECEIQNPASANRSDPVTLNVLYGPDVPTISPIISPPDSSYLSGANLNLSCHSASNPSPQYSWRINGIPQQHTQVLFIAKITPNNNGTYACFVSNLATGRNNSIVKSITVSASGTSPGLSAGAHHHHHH
# [7] = molecular target: T5, huCEA surface protein (LOVO cells) (Homo sapiens, UniProt P06731); assay: Flow cytometry binding of affinity matured humanized BGA7592 variants to LOVO cells
# T5 construct: host or cells: LOVO
# T5 sequence (P06731 35-676): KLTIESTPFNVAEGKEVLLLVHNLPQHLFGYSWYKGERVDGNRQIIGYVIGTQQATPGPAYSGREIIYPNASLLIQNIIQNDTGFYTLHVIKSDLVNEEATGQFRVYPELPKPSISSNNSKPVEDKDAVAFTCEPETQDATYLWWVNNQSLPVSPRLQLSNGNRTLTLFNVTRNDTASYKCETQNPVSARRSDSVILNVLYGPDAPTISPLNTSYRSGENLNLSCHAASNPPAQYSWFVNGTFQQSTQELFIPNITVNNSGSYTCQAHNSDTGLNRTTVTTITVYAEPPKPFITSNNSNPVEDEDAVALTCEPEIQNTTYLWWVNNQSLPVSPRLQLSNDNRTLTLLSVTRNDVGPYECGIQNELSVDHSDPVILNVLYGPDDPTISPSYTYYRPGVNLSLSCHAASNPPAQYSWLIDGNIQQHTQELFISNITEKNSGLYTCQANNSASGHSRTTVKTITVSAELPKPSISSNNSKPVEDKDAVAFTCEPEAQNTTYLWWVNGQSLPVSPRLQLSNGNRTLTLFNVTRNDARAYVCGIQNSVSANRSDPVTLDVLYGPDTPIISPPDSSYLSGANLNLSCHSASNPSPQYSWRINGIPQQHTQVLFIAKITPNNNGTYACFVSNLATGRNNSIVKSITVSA
# Protocol: (§1) Affinity comparison of BGA7592-1F (BGA5366) and other affinity matured clones was made by SPR assay (Table 9) using BIAcore™ T-200 (GE Life Sciences) and flow cytometry (FIG. 7). For this experiment, anti-human IgG (Fc) antibody was immobilized on an activated CM5 biosensor chip (Cat. No. BR100839, GE Life Sciences). Anti-CEA antibodies were flowed over the chip surface and captured by anti-human Fab antibody. Then a serial dilution (1.37 nM to 333 nM) of CHIM was flowed over the chip surface and changes in surface plasmon resonance signals were analyzed to calculate the association rates (kon) and dissociation rates (koff) by using the one-to-one Langmuir binding model (BIA Evaluation Software, GE Life Sciences). For flow cytometry, CEA-expressing cells (10′ cells/well) were incubated with various concentrations of purified affinity-matured antibodies, followed by binding with Alexa Fluro-647-labeled anti-hu IgG Fc antibody (Cat. No. 409320, BioLegend, USA). Cell fluorescence was quantified using a flow cytometer (Guava easyCyte™ 8HT, Merck-Millipore, USA). The equilibrium dissociation constant (KD) was calculated as the ratio koff/kon.
# [8] = molecular target: T4, CHIM; assay: SPR affinity comparison of affinity matured humanized BGA7592 variants on CHIM; assay type: binding; settings: Table 9, SPR on CHIM
# Protocol: as §1
# [9] = molecular target: T6, CEA (Homo sapiens, UniProt P06731); assay: SPR affinity measurement of BGA6710 variants; assay type: binding; settings: BGA6710 variants in IgG format
# T6 construct: 6xHis (C)
# T6 sequence (P06731 with tags, fused parts or gaps limits assumed): T2 sequence
# Description: To further improve the biochemical/biophysical properties, optimization of BGA6710 was made by introducing substitutions in CDR and framework regions (Table 13). The large, hydrophobic residues were chosen and changed to polar residues, except for K13 and Q53, which are selected based on observed differences among human VH germlines. The considerations include amino acid compositions, heat stability (Tm), surface hydrophobicity and isoelectronic points (pIs) while maintaining functional activities. The variants were expressed in Fab format by cloning into the vector pCANTAB-5E as described in Example 6. The Fab-containing supernatants were then screened by ELISA and SPR analysis for CEA binding.
# Thus, the BGA6710 variants in IgG format with single identified mutation or combinations were expressed and purified as described in Example 8.
molecule,measurement,setting,value
B1,EC50 (read off the curve),[1],~0.5 µg/mL
same,Kd,[2],1.49 nM
same,koff,[2],0.000169 s⁻¹
same,kon,[2],113000 M⁻¹ s⁻¹
same,Kd,[3],15.1 nM
same,koff,[3],0.000475 s⁻¹
same,kon,[3],31500 M⁻¹ s⁻¹
same,EC50,[4],0.49 µg/mL
same,Top,[4],919
same,"ADCC (LDH release), NK92MI/CD16V effector cells with CT26 cells expressing CEA, EC50",[5],~0.0067 µg/mL
B2,Ka,[6],19700 M⁻¹ s⁻¹
same,Rmax,[6],97.2 RU
same,affinities to huCEA surface protein,[7],improved affinities
same,Ka,[8],2500 M⁻¹ s⁻¹
same,Rmax,[8],224 RU
B3,Kinetics (huCEA) ka,[9],41700 M⁻¹ s⁻¹
same,Kinetics (huCEA) kd,[9],0.000188 s⁻¹
